Biological target: HA-PEG10 gag-pol (Homo sapiens) (UniProt Q86TG7)
Assay: co-sedimentation; crude VLP preparation: conditioned medium of co-transfected HEK293 cells, cleared at 2700 x g, ultracentrifuged at 134,000 x g for 4 hr at 4°C over a 30% sucrose cushion; pellet analysed by western blot

Chain of UniProt Q86TG7 (Q86TG7 whole entry): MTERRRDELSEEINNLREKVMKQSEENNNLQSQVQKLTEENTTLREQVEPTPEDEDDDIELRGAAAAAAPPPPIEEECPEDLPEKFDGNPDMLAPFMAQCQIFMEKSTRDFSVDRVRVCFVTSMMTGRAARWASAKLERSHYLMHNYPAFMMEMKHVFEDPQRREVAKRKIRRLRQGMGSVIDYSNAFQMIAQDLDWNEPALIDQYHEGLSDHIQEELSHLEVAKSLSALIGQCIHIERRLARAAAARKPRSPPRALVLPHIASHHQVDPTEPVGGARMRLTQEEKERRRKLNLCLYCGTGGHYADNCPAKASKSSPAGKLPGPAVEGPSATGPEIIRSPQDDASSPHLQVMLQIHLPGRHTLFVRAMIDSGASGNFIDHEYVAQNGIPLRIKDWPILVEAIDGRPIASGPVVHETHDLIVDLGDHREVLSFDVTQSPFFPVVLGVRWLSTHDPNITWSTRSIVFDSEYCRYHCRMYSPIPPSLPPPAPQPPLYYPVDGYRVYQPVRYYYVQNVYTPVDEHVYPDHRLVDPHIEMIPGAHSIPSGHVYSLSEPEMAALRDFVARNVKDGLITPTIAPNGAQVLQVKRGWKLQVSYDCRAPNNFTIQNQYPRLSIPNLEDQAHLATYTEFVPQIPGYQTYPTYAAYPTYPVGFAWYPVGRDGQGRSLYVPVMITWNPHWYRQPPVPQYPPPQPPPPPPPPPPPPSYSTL

HA-HsRTL8c (from UniProt A6ZKI3 1-113) (natural protein)
abundance of RTL8 relative to HA-PEG10 in the VLP fraction: 5%

From paper PMC11684626
